In assay [1] the target is T1, full-length GRK2 (endogenous, mouse heart) (mouse (endogenous, in the hearts of the …, UniProt Q99MK8 1-689)).
T1 construct: GRK2 in the heart'; also called βARK1
T1 sequence (looked up): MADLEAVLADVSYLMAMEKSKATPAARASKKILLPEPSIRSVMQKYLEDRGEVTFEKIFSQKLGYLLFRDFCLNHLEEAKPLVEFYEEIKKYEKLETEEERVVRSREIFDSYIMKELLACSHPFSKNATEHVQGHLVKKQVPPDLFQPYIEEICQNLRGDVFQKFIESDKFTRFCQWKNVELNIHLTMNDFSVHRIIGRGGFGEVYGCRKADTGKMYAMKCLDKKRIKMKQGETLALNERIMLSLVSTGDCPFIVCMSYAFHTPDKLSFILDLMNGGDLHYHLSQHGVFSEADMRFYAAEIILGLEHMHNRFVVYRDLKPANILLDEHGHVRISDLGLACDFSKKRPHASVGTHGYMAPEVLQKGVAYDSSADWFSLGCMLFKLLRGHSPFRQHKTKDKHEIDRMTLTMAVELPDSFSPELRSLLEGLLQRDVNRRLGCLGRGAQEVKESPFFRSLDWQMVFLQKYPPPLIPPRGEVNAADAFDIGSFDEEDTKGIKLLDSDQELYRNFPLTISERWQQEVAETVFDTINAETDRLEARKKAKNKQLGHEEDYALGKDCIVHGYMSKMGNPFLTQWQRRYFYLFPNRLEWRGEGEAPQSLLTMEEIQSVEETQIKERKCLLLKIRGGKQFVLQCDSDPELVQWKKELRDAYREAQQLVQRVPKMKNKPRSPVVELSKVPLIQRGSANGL
Put plainly: anti-FLAG immunoprecipitation from cardiac lysates of TgβARKnt mice 4 weeks after Sham or TAC, western blot.

Assay [2] deals with T2, endogenous Gαq in the mouse heart (mouse (endogenous, in the hearts of the …, UniProt P21279 1-359)).
T2 construct: Endogenous protein in cardiac lysates, detected by western blot with anti-Gαq antibody; also called Gq; Gaq
T2 sequence (looked up): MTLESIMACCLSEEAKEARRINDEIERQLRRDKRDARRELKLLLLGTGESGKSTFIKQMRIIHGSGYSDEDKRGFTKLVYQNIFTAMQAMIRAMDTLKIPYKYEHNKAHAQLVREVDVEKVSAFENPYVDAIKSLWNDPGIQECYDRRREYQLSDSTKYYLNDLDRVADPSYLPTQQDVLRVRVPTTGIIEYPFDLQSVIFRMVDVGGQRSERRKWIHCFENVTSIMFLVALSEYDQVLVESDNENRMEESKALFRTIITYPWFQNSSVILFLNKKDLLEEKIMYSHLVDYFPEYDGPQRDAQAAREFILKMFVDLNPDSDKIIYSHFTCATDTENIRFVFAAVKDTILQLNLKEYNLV
Put plainly: anti-FLAG immunoprecipitation from cardiac lysates of TgβARKnt mice 4 weeks after Sham or TAC, western blot with anti-Gαq antibody. A general note: A western blot detects proteins with antibodies after separation by electrophoresis.

B1: flag-tagged βARKnt (bovine GRK2 residues 50-145 with a carboxy-terminal flag-tag) (peptide)
chain: RGEVTFEKIFSQKLGYLLFRDFCLKHLEEAKPLVEFYEEIKKYEKLETEEERLVCSREIFDTYIMKELLACSHPFSKSAIEHVQGHLVKKQVPPDL
notes: An initiator Met is not described; also called βARKnt peptide; βARKnt-flag; not shown: carboxy-terminal flag-tag
Take B1: the binding result in assay [1] and in assay [2] was “no binding” in each case.

For the origin of these results see patent US20190134223A1 (TEMPLE UNIVERSITY OF THE COMMONWEALTH SYSTEM OF HIGHER …, published 2019).
